Our source for the CD8+ T cell response (tetramer staining of day 7 PBLs) in CD4-depleted IFNαβR KO mice values is patent publication US7993648.

For this test, the target named is CD70 (UniProt O55237). The experiment in a line: cell-based or functional assay.
UniProt O55237, sequence (O55237 whole entry): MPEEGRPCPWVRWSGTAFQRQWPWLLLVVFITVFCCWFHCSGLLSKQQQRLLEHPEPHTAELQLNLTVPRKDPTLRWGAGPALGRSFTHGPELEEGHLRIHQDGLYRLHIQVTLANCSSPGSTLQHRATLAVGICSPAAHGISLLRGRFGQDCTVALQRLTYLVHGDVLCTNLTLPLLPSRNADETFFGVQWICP

In the case of anti-CD70 blocking antibody FR70, the CD8+ T cell response (tetramer staining of day 7 PBLs) in CD4-depleted IFNαβR KO mice stood at 10 fold.
